Measured values published in publication PMC7954438.

Molecular target: Sushi domain of IL15Rα (aa1-66) fused to the CH2-CH3 of human IgG1 Fc
Assay: SEC

Sequence of Sushi domain of IL15Rα (aa1-66) fused to the CH2-CH3 of human IgG1 Fc (Q13261 1-66): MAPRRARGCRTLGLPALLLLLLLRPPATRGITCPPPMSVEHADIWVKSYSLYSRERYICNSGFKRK

stoichiometry N: 2
Substance: Sushi domain of IL15Rα (aa1-66) fused to the CH2-CH3 of human IgG1 Fc (Fc fusion)
